Results: the supplement of paper PMC9112550, “Optimization of the antimicrobial peptide Bac7 by deep mutational scanning” (BMC Biology, 2022)

Tested on: Escherichia coli TOP10
Test: shrunken log2 fold change of peptide-encoding DNA abundance (4.5 h post-induction vs induction); higher = less antimicrobial activity (less host growth inhibition)
Conditions: time post-induction: 4.5 h; library: site-saturation at positions 5, 18, 19, 20
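Note: peptides expressed intracellularly from a pBAD plasmid library in pooled LB shake-flask culture, induced with 0.3% L-arabinose, DNA abundance read by NGS, three biological replicates, DESeq2 with apeglm shrinkage.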

| Sequence | shrunken log2 fold change |
| --- | --- |
| RRIRGRPPRLPRPRPRPTNNPRP | 0.217 |
| RRIRYRPPRLPRPRPRPTCTPRP | -0.229 |
| RRIRARPPRLPRPRPRPFIPPRP | -0.492 |
| RRIRERPPRLPRPRPRPKIYPRP | -0.165 |
| RRIRQRPPRLPRPRPRPIIMPRP | -0.25 |
| RRIRARPPRLPRPRPRPIVHPRP | -0.311 |
| RRIRIRPPRLPRPRPRPCQFPRP | -0.395 |
| RRIRKRPPRLPRPRPRPPDVPRP | -0.0127 |
| RRIRFRPPRLPRPRPRPLVFPRP | -0.204 |
| RRIRNRPPRLPRPRPRPGFMPRP | -0.0522 |
| RRIRCRPPRLPRPRPRPINLPRP | -0.355 |
| RRIRFRPPRLPRPRPRPTMLPRP | -0.423 |
| RRIRARPPRLPRPRPRPFKQPRP | 0.123 |
| RRIRCRPPRLPRPRPRPYNEPRP | -0.51 |
| RRIRTRPPRLPRPRPRPAPRPRP | 1.39 |
| RRIRERPPRLPRPRPRPDYFPRP | -0.249 |
| RRIRQRPPRLPRPRPRPMGGPRP | 0.0922 |
| RRIRHRPPRLPRPRPRPGVMPRP | -0.0309 |
| RRIRWRPPRLPRPRPRPPRTPRP | 0.663 |
| RRIRVRPPRLPRPRPRPYDYPRP | -0.00141 |
| RRIRSRPPRLPRPRPRPVHSPRP | 0.139 |
| RRIRARPPRLPRPRPRPTWNPRP | 0.279 |
| RRIRDRPPRLPRPRPRPHKKPRP | -0.00887 |
| RRIRKRPPRLPRPRPRPITAPRP | 0.235 |
| RRIRTRPPRLPRPRPRPYLAPRP | -0.378 |

| Sequence | shrunken log2 fold change |
| --- | --- |
| RRIRARPPRLPRPRPRPQDVPRP | -0.136 |
| RRIRLRPPRLPRPRPRPGHMPRP | -0.236 |
| RRIRVRPPRLPRPRPRPPALPRP | 0.189 |
| RRIRHRPPRLPRPRPRPHDTPRP | -1.08 |
| RRIRCRPPRLPRPRPRPFKWPRP | -0.115 |
| RRIRSRPPRLPRPRPRPDLIPRP | -0.00967 |
| RRIRMRPPRLPRPRPRPPVNPRP | 0.648 |
| RRIRPRPPRLPRPRPRPEWGPRP | 0.42 |
| RRIRMRPPRLPRPRPRPPQDPRP | 1.24 |
| RRIRFRPPRLPRPRPRPYRYPRP | 0.0548 |
| RRIRNRPPRLPRPRPRPEGGPRP | -0.00659 |
| RRIRPRPPRLPRPRPRPQPCPRP | -0.0627 |
| RRIRRRPPRLPRPRPRPFNTPRP | -0.119 |
| RRIRNRPPRLPRPRPRPLIPPRP | -0.208 |
| RRIRKRPPRLPRPRPRPDPRPRP | 1.19 |
| RRIRWRPPRLPRPRPRPVAHPRP | 0.00472 |
| RRIRGRPPRLPRPRPRPCKFPRP | 0.125 |
| RRIRWRPPRLPRPRPRPQKNPRP | 0.0916 |
| RRIRWRPPRLPRPRPRPPKYPRP | -0.163 |
| RRIRHRPPRLPRPRPRPIKCPRP | -0.87 |
| RRIRFRPPRLPRPRPRPSISPRP | -1.18 |
| RRIRVRPPRLPRPRPRPQMMPRP | -0.0693 |
| RRIRQRPPRLPRPRPRPIEVPRP | 0.0112 |
| RRIRRRPPRLPRPRPRPSRIPRP | 0.157 |
| RRIRNRPPRLPRPRPRPGSLPRP | -0.0901 |

| Sequence | shrunken log2 fold change |
| --- | --- |
| RRIRFRPPRLPRPRPRPIIVPRP | -0.394 |
| RRIRWRPPRLPRPRPRPIEVPRP | 0.0279 |
| RRIRLRPPRLPRPRPRPKRFPRP | 0.104 |
| RRIRMRPPRLPRPRPRPMTDPRP | 0.0744 |
| RRIRWRPPRLPRPRPRPVYFPRP | -0.418 |
| RRIRCRPPRLPRPRPRPSTMPRP | -0.509 |
| RRIRVRPPRLPRPRPRPIMYPRP | -0.514 |
| RRIRCRPPRLPRPRPRPDIIPRP | -0.132 |
| RRIRERPPRLPRPRPRPWYYPRP | 0.0432 |
| RRIRMRPPRLPRPRPRPRKLPRP | 0.857 |
| RRIRFRPPRLPRPRPRPERAPRP | 0.611 |
| RRIRYRPPRLPRPRPRPDMWPRP | -1.03 |
| RRIRKRPPRLPRPRPRPNSDPRP | -0.0158 |
| RRIRRRPPRLPRPRPRPGKGPRP | 0.609 |
| RRIRMRPPRLPRPRPRPGITPRP | 0.133 |
| RRIRDRPPRLPRPRPRPPWTPRP | 0.238 |
| RRIRIRPPRLPRPRPRPKPKPRP | 0.161 |
| RRIRTRPPRLPRPRPRPLDFPRP | -0.19 |
| RRIRQRPPRLPRPRPRPQKSPRP | 0.0118 |
| RRIRNRPPRLPRPRPRPGFAPRP | 0.444 |
| RRIRRRPPRLPRPRPRPMHSPRP | 0.36 |
| RRIRTRPPRLPRPRPRPDDPPRP | -0.00805 |
| RRIRKRPPRLPRPRPRPCMLPRP | -0.245 |
| RRIRYRPPRLPRPRPRPFLVPRP | -1.03 |
| RRIRMRPPRLPRPRPRPRDFPRP | 0.83 |

| Sequence | shrunken log2 fold change |
| --- | --- |
| RRIRVRPPRLPRPRPRPLRFPRP | 0.571 |
| RRIRPRPPRLPRPRPRPWSQPRP | 0.0452 |
| RRIRWRPPRLPRPRPRPYVKPRP | -0.436 |
| RRIRKRPPRLPRPRPRPSNSPRP | 0.13 |
| RRIRHRPPRLPRPRPRPGMHPRP | -0.01 |
| RRIRWRPPRLPRPRPRPHYVPRP | -0.113 |
| RRIRGRPPRLPRPRPRPRWVPRP | 0.289 |
| RRIRERPPRLPRPRPRPMWMPRP | -0.0314 |
| RRIRHRPPRLPRPRPRPLLHPRP | -0.238 |
| RRIRNRPPRLPRPRPRPHHQPRP | -1.12 |
| RRIRDRPPRLPRPRPRPPRNPRP | 0.27 |
| RRIRRRPPRLPRPRPRPCQDPRP | -0.275 |
| RRIRQRPPRLPRPRPRPMKYPRP | -0.498 |
| RRIRHRPPRLPRPRPRPEGNPRP | -0.0642 |
| RRIRRRPPRLPRPRPRPVFPPRP | 0.488 |
| RRIRSRPPRLPRPRPRPCRIPRP | -0.263 |
| RRIRPRPPRLPRPRPRPCLPPRP | 0.0296 |
| RRIRRRPPRLPRPRPRPFTTPRP | -0.0176 |
| RRIRDRPPRLPRPRPRPSIAPRP | 0.146 |
| RRIRHRPPRLPRPRPRPEIFPRP | -0.0725 |
| RRIRCRPPRLPRPRPRPWFQPRP | -0.2 |
| RRIRQRPPRLPRPRPRPKMTPRP | 0.00734 |
| RRIRLRPPRLPRPRPRPEMKPRP | -0.169 |
| RRIRTRPPRLPRPRPRPVNTPRP | -0.103 |
| RRIRDRPPRLPRPRPRPVWNPRP | 0.00745 |

| Sequence | shrunken log2 fold change |
| --- | --- |
| RRIRMRPPRLPRPRPRPTINPRP | -0.109 |
| RRIRCRPPRLPRPRPRPALRPRP | 0.457 |
| RRIRPRPPRLPRPRPRPKSVPRP | -0.119 |
| RRIRIRPPRLPRPRPRPIEYPRP | -0.0602 |
| RRIRARPPRLPRPRPRPWNAPRP | -0.124 |
| RRIRHRPPRLPRPRPRPIKVPRP | 0.172 |
| RRIRHRPPRLPRPRPRPYIRPRP | -0.0464 |
| RRIRIRPPRLPRPRPRPCLQPRP | -0.0932 |
| RRIRPRPPRLPRPRPRPCHKPRP | -0.0956 |
| RRIRTRPPRLPRPRPRPRDKPRP | -0.18 |
| RRIRKRPPRLPRPRPRPLQLPRP | 0.166 |
| RRIRVRPPRLPRPRPRPVKRPRP | 0.0275 |
| RRIRNRPPRLPRPRPRPQHAPRP | -0.0717 |
| RRIRNRPPRLPRPRPRPCEYPRP | -0.0196 |
| RRIRFRPPRLPRPRPRPMRYPRP | 0.0824 |
| RRIRFRPPRLPRPRPRPGPLPRP | 0.262 |
| RRIRVRPPRLPRPRPRPFSGPRP | -0.337 |
| RRIRMRPPRLPRPRPRPIMPPRP | 0.0288 |
| RRIRRRPPRLPRPRPRPSCTPRP | 0.0387 |
| RRIRHRPPRLPRPRPRPNCNPRP | -0.589 |
| RRIRPRPPRLPRPRPRPWKGPRP | 0.0625 |
| RRIRKRPPRLPRPRPRPYYEPRP | -0.493 |
| RRIRYRPPRLPRPRPRPFYSPRP | -1.23 |
| RRIRIRPPRLPRPRPRPFGAPRP | -0.143 |
| RRIRKRPPRLPRPRPRPTEVPRP | 0.158 |

| Sequence | shrunken log2 fold change |
| --- | --- |
| RRIRRRPPRLPRPRPRPLKEPRP | 0.0888 |
| RRIRERPPRLPRPRPRPERFPRP | -0.0509 |
| RRIRIRPPRLPRPRPRPMMLPRP | -0.0496 |
| RRIRWRPPRLPRPRPRPRTGPRP | 0.235 |
| RRIRGRPPRLPRPRPRPDQIPRP | 0.167 |
| RRIRQRPPRLPRPRPRPMMAPRP | 0.216 |
| RRIRARPPRLPRPRPRPIERPRP | 0.047 |
| RRIRDRPPRLPRPRPRPLHPPRP | 0.286 |
| RRIRWRPPRLPRPRPRPLGEPRP | 0.224 |
| RRIRYRPPRLPRPRPRPTEIPRP | -0.41 |
| RRIRQRPPRLPRPRPRPPRNPRP | 0.765 |
| RRIRPRPPRLPRPRPRPLQKPRP | -0.0453 |
| RRIRTRPPRLPRPRPRPSPYPRP | -0.573 |
| RRIRIRPPRLPRPRPRPTRSPRP | -0.00877 |
| RRIRRRPPRLPRPRPRPIQWPRP | -0.105 |
| RRIRPRPPRLPRPRPRPHGKPRP | 0.0675 |
| RRIRFRPPRLPRPRPRPDFNPRP | -0.637 |
| RRIRLRPPRLPRPRPRPRPKPRP | 0.294 |
| RRIRTRPPRLPRPRPRPFICPRP | -0.292 |
| RRIRARPPRLPRPRPRPMKFPRP | 0.0174 |
| RRIRARPPRLPRPRPRPDNNPRP | -0.154 |
| RRIRSRPPRLPRPRPRPIMKPRP | -0.292 |
| RRIRSRPPRLPRPRPRPFWQPRP | 0.909 |
| RRIRERPPRLPRPRPRPQMLPRP | -0.0206 |
| RRIRIRPPRLPRPRPRPEQPPRP | 0.307 |
